These results are taken from publication PMC5192466, “Kunitz-Type Peptide HCRG21 from the Sea Anemone Heteractis crispa Is a Full Antagonist of the TRPV1 Receptor” (Marine Drugs, 2016).

Read-outs that look alike come from different tables or passages of the source. Where no end group is shown, it is not given here. Where only a bound is given, the exact number is not on record here.

Assay [1] has as its target trypsin. Conditions: cited from earlier work. An excerpt:
The HCGS peptide subfamily and their evolutionary relationships were described in details previously. […] It is shown, that the first known H. crispa analgesic Kunitz-type peptides, APHC1–APHC3, have a Thr residue (instead of Lys or Arg) at position P1, similar to other representatives of the analgesic cluster (Figure 1a,b).

In assay [2] the target is α-chymotrypsin (Bos taurus, UniProt P00766). Particulars: cited from earlier work. An excerpt:
The HCGS peptide subfamily and their evolutionary relationships were described in details previously. […] Moreo ...

In assay [3] the target is T1, TRPV1 (Rattus norvegicus, UniProt O35433).
T1 construct: expressed in transfected cells; host or cells: Xenopus laevis oocytes injected with cRNA
Put plainly: cell-based. As for the experimental part:
To control the expression level of the TRPV1 channels, experiments were initiated with a first activation of TRPV1 with 1 μM capsaicin (CAP). […] This activation gives an inward non-selective cation current. […] Before application of HCRG21, cells are washed with ND96 to remove any presence of […]. […] However, when rHCRG21 was co-applied together with the agonist capsaicin, a reduction of the current was observed (Figure 5b). […] A concentration–response curve was constructed in order to assess the concentration dependence of the rHCRG21 induced effect. The IC50 value yielded 6.9 ± 0.4 μM (Figure 5c).
Figure 5 Activity profile of rHCRG21 (10 μM) on the TRPV1 receptor. The figures show the results of one representative experiment. Whole-cell current traces in control and rHCRG21 conditions are shown. […] All data represent the average of at least three independent experiments (n ≥ 3) and are presented as mean ± standard error; (c) Concentration–response curve for rHCRG21 on TRPV1 receptor.
For the expression of rKv1.1, hKv1.3, rKv1.4, rKv1.5, rKv1.6, Shaker IR, hERG, and TRPV1 in Xenopus oocytes, the linearized plasmids were transcribed using the T7 or SP6 mMESSAGE-mMACHINE transcription kit (Ambion, Austin, TX, USA). The harvesting of stage V–VI oocytes from anaesthetized female Xenopus laevis frog was previously described. Oocytes were injected with 50 nL of cRNA at a concentration of 1 ng/nL using a micro-injector (Drummond Scientific, Broomall, PA, USA). The oocytes were incubated in a solution containing (in mM): NaCl, 96; KCl, 2; CaCl2, 1.8; MgCl2, 2 and HEPES, 5 (pH 7.4), supplemented with 50 mg/L gentamicin sulfate.
Two-electrode voltage-clamp recordings were performed at room temperature (18–22 °C) using a Geneclamp 500 amplifier (Molecular Devices, Sunnyvale, CA, USA) controlled by a pClamp data acquisition system (Axon Instruments, Foster City, CA, USA). Whole cell currents from oocytes were recorded 1–4 days after injection. Bath solution composition was ND96 (in mM): NaCl, 96; KCl, 2; CaCl2, 1.8; MgCl2, 2, and HEPES, 5 (pH 7.4). Voltage and current electrodes were filled with 3 M KCl. Resistances of both electrodes were kept between 0.8 and 1.5 MΩ. The elicited currents were filtered and sampled at, respectively, 1 kHz and 10 kHz (for potassium currents) and at, respectively, 0.2 kHz and 0.5 kHz (for TRPV1 currents), using a four-pole low-pass Bessel filter. Leak subtraction was performed using a –P/4 protocol. KV1.1–KV1.6 and Shaker currents were evoked by 500 ms depolarizations to 0 mV followed by a 500 ms pulse to −50 mV, from a holding potential of −90 mV. Current traces of hERG channels were elicited by applying a +40 mV prepulse for 2 s followed by a step to −120 mV for 2 s. TRPV1 currents were measured in ND96 solution using a protocol of −90 mV during 400 s. The recording chamber was perfused at a rate of 2 mL·min^−1 with a ND96 solution. As previously described, capsaicin (2 μM) was used as an agonist and capsazepine (10 μM) as an antagonist of TRPV1. Capsaicin and capsazepine were purchased from Sigma. All data represent at least 3 independent experiments (n ≥ 3) in which independent experiments represent experiments on different cells expressing TRPV1 channel and are presented as mean ± standard error.

Assay [4] addresses α-chymotrypsin. Put plainly: enzyme inhibition kinetics (Dixon method); trypsin with BAPNA, α-chymotrypsin with BTEE as substrate; substrate concentrations 133 and 65 mM; both enzymes 215 nM; peptide 0 up to 3.2 mM; three parallel experiments.
The target in assay [5] is T1, TRPV1. Conditions: cited from earlier work. The text has this:
They are the first sea anemone peptide characterized as TRPV1 modulators. […] It belongs to the family of polymodal TRP channels, serving as a molecular cellular sensor, which is activated by a wide spectrum of physical and chemical stimuli. They have diverse biophysical properties such as cation selectivity, specific mechanisms of activation, and they play the main role in ma ... || To control the expression level of the TRPV1 channels, experiments were initiated with a first activation of TRPV1 with 1 μM capsaicin (CAP). […] This activation gives an inward non-selective cation current. […] Before application of HCRG21, cells are washed with ND96 to remove any presence of capsazepine. […] Similarly ... || (+ 3 further places)

Assay [6] deals with voltage-gated potassium channels. Particulars: cited from earlier work. The text has this: For many potent Kv channel blocking toxins, such as α-DTX, DTX-K, and DTX-I, isolated from the snake Dendroaspis polylepis, it has been well established that mainly a series of positive charged residues (for example, R3, R4, K5, K37, K39, K46, and K50 in α-DTX) are crucial for interaction with the Kv channel. […] Although there are many positively charged residues present in the sequence of HCRG21, they do differ in position with known Kv1.1–Kv1.6 blockers, such as α-DTX, DTX-K, DTX-I, AsKC1, and ShPI-1 (Figure 1c). […] Noteworthy, several positively charged residues are conserved between HCRG21 and ShPI-1 (in positions 8, 19, 28, 51, and 55, Figure 1c). Therefore, other Kv channel isoforms should be tested for their sensitivity to HCRG21 as ...

Assay [7] deals with serine, cysteine and aspartate proteases. Particulars: cited from earlier work. An excerpt:
To date, a number of highly homologous native serine protease inhibitors has been isolated from different species: Anemonia sulcata, Heteractis crispa, Anthopleura aff. xanthogrammica, Anthopleura fuscoviridis, Stichodactyla helianthus, and Stichodactyla haddoni.

Assay [8] concerns the target trypsin. Put plainly: enzyme inhibition kinetics (Dixon method); trypsin with BAPNA, α-chymotrypsin with BTEE as substrate; substrate concentrations 133 and 65 mM; both enzymes 215 nM; peptide 0 up to 3.2 mM; three parallel experiments.
Assay [9] addresses transient receptor potential family member vanilloid 1 (TRPV1) (UniProt O35433).

T1 sequence (O35433 whole entry): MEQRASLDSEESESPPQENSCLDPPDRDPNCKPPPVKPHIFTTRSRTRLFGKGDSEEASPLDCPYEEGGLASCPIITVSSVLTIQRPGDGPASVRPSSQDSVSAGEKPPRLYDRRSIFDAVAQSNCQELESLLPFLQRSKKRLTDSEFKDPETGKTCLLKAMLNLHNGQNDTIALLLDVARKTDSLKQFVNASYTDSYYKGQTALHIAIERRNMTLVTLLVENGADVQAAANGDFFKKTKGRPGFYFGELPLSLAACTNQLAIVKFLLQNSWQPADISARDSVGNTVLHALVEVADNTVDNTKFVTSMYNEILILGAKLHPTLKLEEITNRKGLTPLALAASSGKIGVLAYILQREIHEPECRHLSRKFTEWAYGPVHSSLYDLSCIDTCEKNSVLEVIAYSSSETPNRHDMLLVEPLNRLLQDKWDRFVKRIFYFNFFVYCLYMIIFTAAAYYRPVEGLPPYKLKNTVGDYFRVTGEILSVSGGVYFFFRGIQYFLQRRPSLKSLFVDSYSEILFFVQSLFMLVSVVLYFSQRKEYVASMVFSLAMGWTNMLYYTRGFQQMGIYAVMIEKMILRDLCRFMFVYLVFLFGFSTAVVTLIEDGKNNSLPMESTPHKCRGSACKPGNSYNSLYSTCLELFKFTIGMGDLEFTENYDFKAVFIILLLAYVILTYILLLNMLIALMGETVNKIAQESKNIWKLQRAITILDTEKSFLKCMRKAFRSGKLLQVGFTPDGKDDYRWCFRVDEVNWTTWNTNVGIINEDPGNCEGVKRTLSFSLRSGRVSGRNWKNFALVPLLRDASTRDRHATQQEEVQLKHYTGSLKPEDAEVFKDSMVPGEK
Sequence of transient receptor potential family member vanilloid 1 (TRPV1) (O35433 whole entry): as above

Consider “AsKC1: kalicludine from Anemonia sulcata (UniProt Q9TWG0) (INKDCLLPMDVGRCRASHPRYYYNSSSKRCEKFIYGGCRGNANNFHTLEECEKVCGVR; ends and bridges not checked; cysteine pairing not given here; UniProt Q9TWG0 1-58, looked up)”, for which the Ki at trypsin [1] is below 0.3 nM.

Turning to “APHC2: H. crispa analgesic Kunitz-type peptide (UniProt C0HJF4)”, in the assay with α-chymotrypsin [2], the Ki was 4500 nM.

Turning to `Oc1cc2c(cc1O)CN(C(=S)NCCc1ccc(Cl)cc1)CCC2` [capsazepine, reference compound], the “effect on capsaicin-activated TRPV1 (control antagonist)” value at TRPV1 [3] is reported as “closes the channels allowing the current levels to return to zero”.

“recombinant HCRG21, Kunitz-type peptide from the sea anemone Heteractis crispa (from UniProt P0DL86 1-56)” returned an inhibitory constant (Ki) with α-chymotrypsin [4] of 700 nM.

In the case of “APHC1: H. crispa analgesic Kunitz-type peptide (UniProt B2G331) (GSICLEPKVVGPCTAYFRRFYFDSETGKCTVFIYGGCEGNGNNFETLRACRAICRA; three disulfides (Kunitz fold)) [reference compound]”, the half-maximal effective concentration (EC50) with TRPV1 [5] (read-out: EC50, decrease of capsaicin induced currents through TRPV1) was 54 ± 4 nM.

With `COc1cc(CNC(=O)CCCC/C=C/C(C)C)ccc1O` [capsaicin, reference compound], the “effect on TRPV1 (control agonist)” value on TRPV1 [3] is given as “opens the channels”.

As for “APHC1: H. crispa analgesic Kunitz-type peptide (UniProt B2G331)”, the Ki with α-chymotrypsin [2] was 5000 nM.

With “AsKC3: Kunitz-type peptide from Anemonia sulcata (UniProt Q9TWF8) (INGDCELPKVVGRCRARFPRYYYNLSSRRCEKFIYGGCGGNANNFHTLEECEKVCGVRS; ends and bridges not checked; cysteine pairing not given here; UniProt Q9TWF8 1-59, looked up)”, the Ki at trypsin [1] was below 0.3 nM.

In the case of “SHPI-1: protease inhibitor from the sea anemone Stichodactyla helianthus (UniProt P31713) (SICSEPKKVGRCKGYFPRFYFDSETGKCTPFIYGGCGGNGNNFETLHQCRAICRA; UniProt P31713 1-55, looked up)”, the Ki was 0.11 nM on trypsin [1] and 2.3 nM with α-chymotrypsin [2]. The “binding to Kv1.1, Kv1.2, and Kv1.6 channels” value in assay [6] is listed as “binds with high affinity”. In addition, the protease inhibitory specificity entry in [7] is “inhibits not only serine but also cysteine and aspartate proteases”.

With “AsKC2: kalicludine from Anemonia sulcata (UniProt Q9TWF9) (INKDCLLPMDVGRCRARHPRYYYNSSSRRCEKFIYGGCRGNANNFITKKECEKVCGVR; ends and bridges not checked; cysteine pairing not given here; UniProt Q9TWF9 1-58, looked up)”, at trypsin [1], the Ki is below 0.3 nM.

On to “APHC3: H. crispa analgesic Kunitz-type peptide (UniProt C0HJF3)”, for which, in the assay with α-chymotrypsin [2], the Ki is 7000 nM.

B1: DkTx: double-knot toxin from the Chinese bird spider Ornithoctonus huwena (peptide, UniProt P0CH43 1-79, looked up)
Tau-theraphotoxin-Hs1a: DCAKEGEVCSWGKKCCDLDNFYCPMEFIPHCKKYKPYVPVTTNCAKEGEVCGWGSKCCHGLDCPLAFIPYCEKYRGRND
For the molecule B1, in the assay with TRPV1 [5] (conformational change in the receptor upper pore region), the “effect of DkTx on TRPV1 current” value is “enhances the ion current through the channel”. In addition, the TRPV1 agonism entry in the assay with TRPV1 [5] (ref 48 (DkTx), ref 49 (VaTx1–VaTx3), ref 50 (BmP01)) was “agonists”.

B2: recombinant HCRG21, Kunitz-type peptide from the sea anemone Heteractis crispa (peptide)
chain: RGICSEPKVVGPCTAYFRRFYFDSETGKCTPFIYGGCEGNGNNFETLRACRAICRA
The molecule B2 had a Ki in the assay with trypsin [8] of 200 nM. In addition, the IC50 of the inhibition of the capsaicin-induced current through TRPV1 in X. laevis oocytes (two-electrode voltage clamp, peptide co-applied with capsaicin; concentration-response curve) in assay [9] was found to be 6900 nM.
